Numbering of substitutions follows the chain as printed.
B1: EPC10 (ligand, not shown: small tags and cut ends)
chain: GDQNPQIAAHVISEASSTTTSVLQWAEKGYYTMSNNLVTLENGKQLTVKRQGLYYIYAQVTFCSNREASSQAPFIASLCLKSPGRFERILLRAANTHSSAKHCGQQSIHLGGVFELQPGASVFVNVTDPSQVSHGTGFTSFGLFKL
B2: EPC7 (ligand, not shown: small tags and cut ends)
chain: B1 chain with T18K, S70G, H102R

How the values were obtained:
[1] = target: CD40 on peripheral blood B cells (CD3- CD19+ cells of PBMC) (UniProt P25942); experiment: flow cytometry: PBMC stained with the secondary anti-His tag antibody alone (negative control); gate lymphoid, single, viable, CD3- CD19+ cells [panel B]
[2] = target: CD40 on peripheral blood B cells (CD3- CD19+ cells of PBMC) (UniProt P25942); experiment: flow cytometry: PBMC incubated with 0.043 uM His-tagged CD40L construct, secondary anti-His tag antibody; gate lymphoid, single, viable, CD3- CD19+ cells [panel B]

Molecule	MFI [1]	MFI [2]
Control (antibody)	99	–
WT (ligand)	–	1300
B1	–	1180
B2	–	1360
